Among the data in publication PMC11429718 are stoichiometry N values, retold here.

Experiment [1] deals with 329 SOSIP.v8.2 Env trimer (HIV-1 clade C (isolate 329.14.B1)). The experiment in a line: negative-stain electron microscopy.
Experiment [2] shares this target. The experiment in a line: native gel or EMSA.

329 SOSIP.v8.2 Env trimer (complex): the stoichiometry N in experiment [1] and in experiment [2] was 3 each time.
